Results taken from PMC7080496.

How the values were obtained:
[1] = target: Adenosine A2A receptor (A2AAR), human, residues 1 to 316, with the M1A/M4T mutation, reconstituted in rHDLs (nanodiscs) (human) (UniProt P29274)
[2] = target: Adenosine A2A receptor (A2AAR), human, residues 1 to 316, with the M1A/M4T mutation, reconstituted in rHDLs (nanodiscs) (human) (UniProt P29274); remark: listed apart in the source
[3] = target: Adenosine A2A receptor (A2AAR), human, residues 1 to 316, with the M1A/M4T mutation, reconstituted in rHDLs (nanodiscs) (human) (UniProt P29274); remark: listed apart in the source

Sequence of Adenosine A2A receptor (A2AAR), human, residues 1 to 316, with the M1A/M4T mutation, reconstituted in rHDLs (nanodiscs) (human) (P29274 1-316 M1A/M4T): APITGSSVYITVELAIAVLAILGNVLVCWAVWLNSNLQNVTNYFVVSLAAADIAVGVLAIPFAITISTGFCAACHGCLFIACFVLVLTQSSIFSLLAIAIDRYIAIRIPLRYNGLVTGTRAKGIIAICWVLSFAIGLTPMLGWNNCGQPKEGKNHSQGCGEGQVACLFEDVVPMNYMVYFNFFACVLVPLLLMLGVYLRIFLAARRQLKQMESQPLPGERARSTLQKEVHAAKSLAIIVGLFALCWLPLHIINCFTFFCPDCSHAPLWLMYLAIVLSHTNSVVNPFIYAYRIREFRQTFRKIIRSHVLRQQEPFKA
Sequence of heterotrimeric G protein consisting of human Gαs, bovine Gβ1, and human Gγ2 (P63092 whole entry): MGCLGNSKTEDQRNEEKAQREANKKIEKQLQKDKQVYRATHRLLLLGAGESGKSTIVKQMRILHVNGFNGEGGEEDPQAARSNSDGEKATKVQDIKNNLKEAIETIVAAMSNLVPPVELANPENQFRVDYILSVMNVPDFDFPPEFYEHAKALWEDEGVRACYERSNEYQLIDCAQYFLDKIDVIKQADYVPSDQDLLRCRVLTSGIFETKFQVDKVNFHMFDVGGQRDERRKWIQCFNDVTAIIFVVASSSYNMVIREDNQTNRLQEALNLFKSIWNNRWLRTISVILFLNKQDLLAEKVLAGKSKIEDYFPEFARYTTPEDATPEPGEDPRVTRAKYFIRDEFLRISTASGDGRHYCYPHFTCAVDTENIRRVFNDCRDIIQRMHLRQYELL
Sequence of heterotrimeric G protein consisting of human Gαs, bovine Gβ1, and human Gγ2 (P62871 whole entry): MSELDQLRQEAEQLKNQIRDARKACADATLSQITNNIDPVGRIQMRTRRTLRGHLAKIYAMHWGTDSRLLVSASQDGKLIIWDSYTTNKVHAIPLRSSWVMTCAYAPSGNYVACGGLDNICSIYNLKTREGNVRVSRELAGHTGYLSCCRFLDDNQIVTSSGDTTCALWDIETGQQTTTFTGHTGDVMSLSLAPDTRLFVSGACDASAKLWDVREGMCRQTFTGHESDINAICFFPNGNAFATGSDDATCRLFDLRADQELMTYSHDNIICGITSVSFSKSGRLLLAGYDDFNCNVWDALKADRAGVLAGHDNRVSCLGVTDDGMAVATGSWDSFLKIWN
Sequence of heterotrimeric G protein consisting of human Gαs, bovine Gβ1, and human Gγ2 (P59768 whole entry): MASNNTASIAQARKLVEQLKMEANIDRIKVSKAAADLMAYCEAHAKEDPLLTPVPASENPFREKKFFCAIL

heterotrimeric G protein consisting of human Gαs, bovine Gβ1, and human Gγ2 (from UniProt P63092 1-394; P62871 1-340; P59768 1-71) (complex)
initial [35S]-GTPγS binding rate, A2AAR in rHDL(DHA) in which DHA constitutes 15% of the acyl chains, against A2AAR in rHDL(POPC/POPG) [1]: 1.29 times | GDP/GTP reaction rate, A2AAR in rHDL(DHA) against A2AAR in rHDL(ARA) [2]: 1.7 fold | initial [35S]-GTPγS binding rate, A2AAR in rHDL(ARA) against A2AAR in rHDL(POPC/POPG), full agonist [3]: 1.1 times | initial [35S]-GTPγS binding rate, A2AAR in rHDL(DHA) against A2AAR in rHDL(POPC/POPG), full agonist [3]: 1.88 times
